Assay results: patent US6034062

How the values were obtained:
[1] = target: BMP-9 receptors expressed on HepG2 cells (ATCC HB8065)
[2] = target: BMP-9 receptors expressed on HepG2 cells (ATCC HB8065); assay: 125I-BMP-9 binding to HepG2 cells, high affinity sites
[3] = target: plasma membrane preparation from adult rat lung; assay: [125I]rhBMP-9 displacement profile on rat lung plasma membranes
[4] = target: plasma membrane preparation from adult rat kidney; assay: [125I]rhBMP-9 displacement profile on rat kidney plasma membranes
[5] = target: BMP-9 receptors expressed on HepG2 cells (ATCC HB8065); assay: 125I-BMP-9 binding to confluent HepG2 cells, displacement by unlabelled BMP-9, Scatchard analysis

3H-thymidine incorporation in HepG2 cells [1]: 5 fold
ED50 of 3H-thymidine incorporation in HepG2 cells [1]: 10 ng/mL
Kd [2]: 0.27 nM
Kd [3]: 0.6 nM
Kd [4]: 0.3 nM
Kd [5]: 0.3 nM
B1: recombinant human BMP-9 (CHO-derived, mature) (ligand)
chain: TRECSRSCPRTAPQRQVRAVTRRTRMAHVAAGSTLARRKRSAGAGSHCQKTSLRVNFEDIGWDSWIIAPKEYEAYECKGGCFFPLADDVTPTKHAIVQTLVHLKFPTKVG
modifications: 125I-iodinated as tracer; unlabelled BMP-9 used as the displacing ligand
